The values that follow come from patent US20250042956A1 (University of California, published 2025).

Experiment [1] has as its target T1, AT4G35510.1 TRBIP1 (Arabidopsis thaliana).
T1 construct: Endogenous protein found by mass spectrometry
T1 chain: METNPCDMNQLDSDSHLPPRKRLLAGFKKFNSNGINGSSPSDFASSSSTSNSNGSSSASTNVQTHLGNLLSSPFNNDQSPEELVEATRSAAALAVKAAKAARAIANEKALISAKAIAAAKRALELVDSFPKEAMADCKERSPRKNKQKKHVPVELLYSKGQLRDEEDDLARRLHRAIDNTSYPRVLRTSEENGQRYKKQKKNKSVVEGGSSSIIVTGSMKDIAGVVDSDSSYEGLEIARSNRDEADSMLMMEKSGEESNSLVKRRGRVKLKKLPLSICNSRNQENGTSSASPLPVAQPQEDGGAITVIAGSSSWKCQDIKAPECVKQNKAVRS
In words: IP-MS rep 1. Here is the method:
(§1) The method of IP-MS used in this Example has been described in a recent paper (see e.g., Xue, Nat. Comm., 2021). Ten grams of unopened floral buds from Col-0 wild type and FLAG-tag transgenic plants, including PHD1, MOM1, AIPP3, MOM2, MORC6, PIAL2, TRB1, TRB2, TRB3, JMJ14, HD2A, HD2B, and ELF7 were collected and ground into fine powder with liquid nitrogen. These samples were resuspended with 25 mL IP buffer and homogenized until lump-free by dounce homogenizer. The lysate was filtered through Miracloth and incubated with 250 μL anti-FLAG M2 magnetic beads (Sigma) at 4° C. for 2 hours. The magnetic beads were washed with IP buffer and eluted with TBS containing 250 μg/mL 3×FLAG peptides. The eluted proteins were precipitated with trichloroacetic acid (Sigma) and subject to MS analyses as described previously (see e.g., Xue, Nat. Comm., 2021).

In experiment [2] the target is T2, AT4G20400.1 JMJ14 (Arabidopsis thaliana, UniProt Q8GUI6 1-954).
T2 construct: Endogenous protein found by mass spectrometry; also called JUMONJI 14
In words: IP-MS rep 1. Here is the method: as §1

For experiment [3], the target named is T3, AT2G17540.2 TRBIP2 (Arabidopsis thaliana).
T3 construct: Endogenous protein found by mass spectrometry
T3 chain: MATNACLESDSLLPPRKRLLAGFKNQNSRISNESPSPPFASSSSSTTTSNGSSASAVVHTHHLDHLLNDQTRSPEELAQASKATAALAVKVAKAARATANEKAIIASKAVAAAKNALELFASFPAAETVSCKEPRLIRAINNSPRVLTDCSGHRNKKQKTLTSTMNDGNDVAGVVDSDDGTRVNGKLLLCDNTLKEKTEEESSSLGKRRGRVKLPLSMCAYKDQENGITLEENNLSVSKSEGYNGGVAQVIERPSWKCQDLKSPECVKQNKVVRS
In words: IP-MS rep 1. On the procedure: as §1

For experiment [4], the target named is T1, AT4G35510.1 TRBIP1. In words: IP-MS rep 2. On the procedure: as §1
Experiment [5] has as its target T2, AT4G20400.1 JMJ14. In words: IP-MS rep 2. On the procedure:
as §1

The target of experiment [6] is T3, AT2G17540.2 TRBIP2. In words: IP-MS rep 2. Here is the method: as §1
In experiment [7] the target is T1, AT4G35510.1 TRBIP1. As to the kind of experiment: X-link IP-MS.
Experiment [8] concerns the target T2, AT4G20400.1 JMJ14. In words: X-link IP-MS.
Experiment [9] deals with T3, AT2G17540.2 TRBIP2. In words: X-link IP-MS.
In experiment [10] the target is T4, AT3G49850.1 TRB3 (Arabidopsis thaliana, UniProt Q9M2X3 1-295).
T4 construct: Endogenous protein found by mass spectrometry
T4 sequence: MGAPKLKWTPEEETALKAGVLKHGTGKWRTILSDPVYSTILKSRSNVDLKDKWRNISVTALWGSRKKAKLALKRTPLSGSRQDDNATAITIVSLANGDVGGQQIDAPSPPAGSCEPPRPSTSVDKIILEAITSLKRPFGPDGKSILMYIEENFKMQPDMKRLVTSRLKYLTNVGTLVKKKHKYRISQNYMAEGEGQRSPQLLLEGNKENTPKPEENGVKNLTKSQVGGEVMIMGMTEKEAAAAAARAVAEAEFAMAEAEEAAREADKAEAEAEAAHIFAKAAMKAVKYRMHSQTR
As to the kind of experiment: IP-MS rep 1. Here is the method: as §1

The target of experiment [11] is T5, AT2G23380.1 CLF (Arabidopsis thaliana, UniProt P93831 1-902).
T5 construct: Endogenous protein found by mass spectrometry; also called CURLY LEAF
T5 sequence (looked up): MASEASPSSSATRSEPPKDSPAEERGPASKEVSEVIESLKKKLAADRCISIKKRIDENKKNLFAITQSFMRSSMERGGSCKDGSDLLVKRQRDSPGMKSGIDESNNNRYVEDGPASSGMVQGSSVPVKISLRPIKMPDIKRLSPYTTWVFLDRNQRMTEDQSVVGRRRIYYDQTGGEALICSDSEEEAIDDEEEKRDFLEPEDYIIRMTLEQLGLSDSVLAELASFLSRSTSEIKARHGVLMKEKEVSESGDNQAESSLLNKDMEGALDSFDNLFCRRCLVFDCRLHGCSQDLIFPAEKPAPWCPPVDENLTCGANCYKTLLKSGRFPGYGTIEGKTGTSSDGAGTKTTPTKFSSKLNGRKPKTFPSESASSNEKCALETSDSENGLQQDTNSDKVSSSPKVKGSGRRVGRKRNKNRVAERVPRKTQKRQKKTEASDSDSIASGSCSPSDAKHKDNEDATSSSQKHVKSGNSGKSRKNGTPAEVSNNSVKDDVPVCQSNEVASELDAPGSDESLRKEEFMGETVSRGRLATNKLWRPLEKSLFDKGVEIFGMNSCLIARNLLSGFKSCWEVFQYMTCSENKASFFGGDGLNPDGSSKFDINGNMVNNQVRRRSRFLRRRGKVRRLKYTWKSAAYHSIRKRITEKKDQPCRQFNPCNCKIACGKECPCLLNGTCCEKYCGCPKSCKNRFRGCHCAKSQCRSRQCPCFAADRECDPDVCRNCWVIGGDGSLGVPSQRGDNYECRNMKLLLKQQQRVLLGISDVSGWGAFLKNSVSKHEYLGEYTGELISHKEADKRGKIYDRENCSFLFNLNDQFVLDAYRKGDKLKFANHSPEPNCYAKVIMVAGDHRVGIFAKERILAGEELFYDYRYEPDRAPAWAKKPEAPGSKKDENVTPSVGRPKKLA
As to the kind of experiment: IP-MS rep 1. On the procedure: as §1

Experiment [12] concerns the target T6, AT5G51230.1 EMF2 (Arabidopsis thaliana, UniProt Q8L6Y4 1-631).
T6 construct: Endogenous protein found by mass spectrometry; also called EMBRYONIC FLOWER 2
T6 sequence (looked up): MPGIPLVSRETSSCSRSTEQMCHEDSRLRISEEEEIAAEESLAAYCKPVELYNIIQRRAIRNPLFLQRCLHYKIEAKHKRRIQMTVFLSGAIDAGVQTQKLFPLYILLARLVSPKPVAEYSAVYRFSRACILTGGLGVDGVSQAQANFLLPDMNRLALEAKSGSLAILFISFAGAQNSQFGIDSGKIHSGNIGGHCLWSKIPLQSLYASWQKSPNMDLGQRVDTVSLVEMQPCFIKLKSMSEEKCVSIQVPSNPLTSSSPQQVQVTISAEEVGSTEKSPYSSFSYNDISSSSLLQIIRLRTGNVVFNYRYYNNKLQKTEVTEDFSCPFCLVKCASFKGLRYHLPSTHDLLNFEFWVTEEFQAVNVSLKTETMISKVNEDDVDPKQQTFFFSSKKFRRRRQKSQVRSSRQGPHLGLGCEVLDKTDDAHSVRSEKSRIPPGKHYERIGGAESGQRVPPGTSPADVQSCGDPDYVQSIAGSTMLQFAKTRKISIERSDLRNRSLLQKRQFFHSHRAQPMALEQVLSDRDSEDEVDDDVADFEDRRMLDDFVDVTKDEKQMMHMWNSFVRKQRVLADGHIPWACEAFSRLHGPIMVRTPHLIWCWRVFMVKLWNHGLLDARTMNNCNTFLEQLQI
In words: IP-MS rep 1. On the procedure: as §1

Experiment [13] deals with T4, AT3G49850.1 TRB3. In words: IP-MS rep 2. Here is the method:
as §1

In experiment [14] the target is T5, AT2G23380.1 CLF. In words: IP-MS rep 2. Here is the method: as §1
Experiment [15] deals with T6, AT5G51230.1 EMF2. In words: IP-MS rep 2. Here is the method:
as §1

Experiment [16] has as its target T4, AT3G49850.1 TRB3. In words: X-link IP-MS.
The target of experiment [17] is T5, AT2G23380.1 CLF. In words: X-link IP-MS.
The target in experiment [18] is T6, AT5G51230.1 EMF2. In words: X-link IP-MS.

T2 sequence (Q8GUI6 whole entry): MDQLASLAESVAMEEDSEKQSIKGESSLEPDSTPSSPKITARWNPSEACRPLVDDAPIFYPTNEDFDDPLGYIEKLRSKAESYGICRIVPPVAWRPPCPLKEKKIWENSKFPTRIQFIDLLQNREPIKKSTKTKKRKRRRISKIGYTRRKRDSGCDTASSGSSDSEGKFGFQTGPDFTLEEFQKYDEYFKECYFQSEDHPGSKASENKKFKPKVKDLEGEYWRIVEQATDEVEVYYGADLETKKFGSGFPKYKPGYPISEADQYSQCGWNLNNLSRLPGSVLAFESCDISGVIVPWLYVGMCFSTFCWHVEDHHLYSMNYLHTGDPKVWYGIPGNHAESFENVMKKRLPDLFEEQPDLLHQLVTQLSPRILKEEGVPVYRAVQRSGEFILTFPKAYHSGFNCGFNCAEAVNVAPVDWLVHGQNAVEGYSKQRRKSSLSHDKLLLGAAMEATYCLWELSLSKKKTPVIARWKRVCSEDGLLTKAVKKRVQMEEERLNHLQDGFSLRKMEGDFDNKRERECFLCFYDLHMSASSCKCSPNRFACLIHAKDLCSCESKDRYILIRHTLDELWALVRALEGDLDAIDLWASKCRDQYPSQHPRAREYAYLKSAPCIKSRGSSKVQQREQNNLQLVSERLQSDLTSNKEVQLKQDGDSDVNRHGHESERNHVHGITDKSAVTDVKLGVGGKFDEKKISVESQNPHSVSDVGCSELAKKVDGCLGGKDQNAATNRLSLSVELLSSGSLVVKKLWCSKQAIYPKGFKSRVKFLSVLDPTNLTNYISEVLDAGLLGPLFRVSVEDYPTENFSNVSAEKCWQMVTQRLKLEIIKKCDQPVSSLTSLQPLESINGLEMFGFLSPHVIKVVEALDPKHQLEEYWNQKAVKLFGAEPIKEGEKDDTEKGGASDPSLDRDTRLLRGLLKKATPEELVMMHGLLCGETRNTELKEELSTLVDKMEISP

B1: FLAG-TRB2 (other, not shown: small tags and cut ends)
chain: MGAPKQKWTPEEEAALKAGVLKHGTGKWRTILSDSEFSLILKSRSNVDLKDKWRNISVTALWGSRKKAKLALKRTPPGTKQDDNNTALTIVALTNDDERAKPTSPGGSGGGSPRTCASKRSITSLDKIIFEAITNLRELRGSDRTSIFLYIEENFKTPPNMKRHVAVRLKHLSSNGTLVKIKHKYRFSSNFIPAGARQKAPQLFLEGNNKKDPTKPEENGANSLTKFRVDGELYMIKGMTAQEAAEAAARAVAEAEFAITEAEQAAKEAERAEAEAEAAQIFAKAAMKALKFRIRNHPW
notes: FLAG-tagged TRB2 from its native promoter; tag position under the label FLAG-TRB2 not certain; also called TRB2-FLAG; TRB-FLAG
Take B1: the IP-MS count came to 22 with AT4G35510.1 TRBIP1 [1]; 3 in the experiment with AT4G20400.1 JMJ14 [2]; 10 in the experiment with AT2G17540.2 TRBIP2 [3]; 22 in the experiment with AT4G35510.1 TRBIP1 [4]; 4 in the experiment with AT4G20400.1 JMJ14 [5]; 10 with AT2G17540.2 TRBIP2 [6]. The IP-MS count amounted to 16 with AT4G35510.1 TRBIP1 [7], 78 in the experiment with AT4G20400.1 JMJ14 [8] and 7 with AT2G17540.2 TRBIP2 [9].

B2: FLAG-TRB1 (other, not shown: small tags and cut ends)
chain: MGAPKQKWTQEEESALKSGVIKHGPGKWRTILKDPEFSGVLYLRSNVDLKDKWRNMSVMANGWGSREKSRLAVKRTFSLPKQEENSLALTNSLQSDEENVDATSGLQVSSNPPPRRPNVRLDSLIMEAIATLKEPGGCNKTTIGAYIEDQYHAPPDFKRLLSTKLKYLTSCGKLVKVKRKYRIPNSTPLSSHRRKGLGVFGGKQRTSSLPSPKTDIDEVNFQTRSQIDTEIARMKSMNVHEAAAVAAQAVAEAEAAMAEAEEAAKEAEAAEAEAEAAQAFAEEASKTLKGRNICKMMIRA
notes: FLAG-tagged TRB1 from its native promoter in the trb1 mutant background; Printed both as TRB-FLAG and FLAG-TRB1; the vector description gives a C-terminal 3xFLAG-BLRP, so the tag position under the label FLAG-TRB1 is not certain; also called TRB1-FLAG; TRB-FLAG
As to B2, the IP-MS count with AT3G49850.1 TRB3 [10] came out at 0; with AT2G23380.1 CLF [11], 0; with AT4G35510.1 TRBIP1 [1], 5; with AT5G51230.1 EMF2 [12], 0; with AT2G17540.2 TRBIP2 [3], 18; with AT3G49850.1 TRB3 [13] it was 0. For the same molecule, the IP-MS count turned out to be 0 with AT2G23380.1 CLF [14]; 11 with AT4G35510.1 TRBIP1 [4]; 0 in the experiment with AT5G51230.1 EMF2 [15]; 22 with AT2G17540.2 TRBIP2 [6]; 0 with AT3G49850.1 TRB3 [16]; 0 with AT2G23380.1 CLF [17]. Also, the IP-MS count with AT4G35510.1 TRBIP1 [7], with AT5G51230.1 EMF2 [18] and with AT2G17540.2 TRBIP2 [9] was 0 in each case.
